Laboratory results reported in US20110212097A1.
Blank lines part the entries; values can stand above or below the substance they belong to.

Tests used:
[1] = molecular target: DSE-2-BSA antigen (human); experiment: indirect ELISA Exp #1
[2] = molecular target: SOD1 oxidized with H2O2 (Homo sapiens (Human)) (UniProt P00441); experiment: ELISA mean; 10 mM H2O2
[3] = molecular target: denatured or misfolded SOD1 (SOD1 in denaturation buffer with 6M GdnHCl) (Homo sapiens (Human)) (UniProt P00441); experiment: ELISA, unfolded vs natively folded SOD1
[4] = molecular target: human transferrin (human) (UniProt P02787); experiment: indirect ELISA, control antigen
Chain of UniProt P02787 (P02787 20-698 limits assumed): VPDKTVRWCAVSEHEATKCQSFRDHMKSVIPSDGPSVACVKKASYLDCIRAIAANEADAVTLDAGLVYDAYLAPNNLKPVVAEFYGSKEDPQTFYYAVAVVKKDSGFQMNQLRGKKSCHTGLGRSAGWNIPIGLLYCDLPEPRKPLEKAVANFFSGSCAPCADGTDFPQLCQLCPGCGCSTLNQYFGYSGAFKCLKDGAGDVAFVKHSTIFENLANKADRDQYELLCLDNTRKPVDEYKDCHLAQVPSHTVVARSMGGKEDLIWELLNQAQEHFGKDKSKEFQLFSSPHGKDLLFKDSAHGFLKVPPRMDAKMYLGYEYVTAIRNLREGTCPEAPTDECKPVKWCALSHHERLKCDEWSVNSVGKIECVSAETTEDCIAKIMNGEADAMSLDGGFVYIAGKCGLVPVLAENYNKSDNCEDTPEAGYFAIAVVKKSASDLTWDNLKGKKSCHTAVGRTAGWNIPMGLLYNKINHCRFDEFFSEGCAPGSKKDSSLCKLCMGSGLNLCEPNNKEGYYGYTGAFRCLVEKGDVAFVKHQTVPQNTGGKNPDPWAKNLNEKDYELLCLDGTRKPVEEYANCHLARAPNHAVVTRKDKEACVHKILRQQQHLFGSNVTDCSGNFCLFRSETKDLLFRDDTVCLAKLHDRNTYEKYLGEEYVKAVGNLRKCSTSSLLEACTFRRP

[5] = molecular target: SOD1 oxidized with H2O2 (Homo sapiens (Human)) (UniProt P00441); experiment: ELISA rep1; 1 mM H2O2
[6] = molecular target: denatured or misfolded SOD1 (SOD1 in denaturation buffer with 6M GdnHCl) (Homo sapiens (Human)) (UniProt P00441); experiment: ELISA rep2; SOD-Gnd
[7] = molecular target: natively folded SOD1 (SOD1 in PBS) (Homo sapiens (Human)) (UniProt P00441); experiment: ELISA rep1; SOD-PBS
[8] = molecular target: SOD1 oxidized with a mixture of ascorbate and copperchloride (Homo sapiens (Human)) (UniProt P00441); experiment: ELISA rep2; 1 hr CuCl
[9] = molecular target: SOD1 oxidized with a mixture of ascorbate and copperchloride (Homo sapiens (Human)) (UniProt P00441); experiment: ELISA rep1; 3 hr CuCl
[10] = molecular target: SOD1 oxidized with a mixture of ascorbate and copperchloride (Homo sapiens (Human)) (UniProt P00441); experiment: ELISA mean; 3 hr CuCl
[11] = molecular target: SOD1 oxidized with H2O2 (Homo sapiens (Human)) (UniProt P00441); experiment: ELISA rep2; 1 mM H2O2
[12] = molecular target: SOD1 oxidized with a mixture of ascorbate and copperchloride (Homo sapiens (Human)) (UniProt P00441); experiment: ELISA mean; 0 hr CuCl
[13] = molecular target: SOD1 oxidized with a mixture of ascorbate and copperchloride (Homo sapiens (Human)) (UniProt P00441); experiment: ELISA rep2; 3 hr CuCl
[14] = molecular target: denatured or misfolded SOD1 (SOD1 in denaturation buffer with 6M GdnHCl) (Homo sapiens (Human)) (UniProt P00441); experiment: ELISA rep1; SOD-Gnd
[15] = molecular target: SOD1 oxidized with H2O2 (Homo sapiens (Human)) (UniProt P00441); experiment: ELISA mean; 1 mM H2O2
BSA control in PBS [16] = molecular target: BSA control in PBS (UniProt P02769); experiment: ELISA rep2; BSA-PBS
[17] = molecular target: natively folded SOD1 (SOD1 in PBS) (Homo sapiens (Human)) (UniProt P00441); experiment: ELISA mean; SOD-PBS
[18] = molecular target: denatured or misfolded SOD1 (SOD1 in denaturation buffer with 6M GdnHCl) (Homo sapiens (Human)) (UniProt P00441); experiment: ELISA mean; SOD-Gnd
[19] = molecular target: SOD1 oxidized with a mixture of ascorbate and copperchloride (Homo sapiens (Human)) (UniProt P00441); experiment: ELISA mean; 6 hr CuCl
[20] = molecular target: SOD1 oxidized with a mixture of ascorbate and copperchloride (Homo sapiens (Human)) (UniProt P00441); experiment: ELISA rep1; 6 hr CuCl
[21] = molecular target: SOD1 oxidized with H2O2 (Homo sapiens (Human)) (UniProt P00441); experiment: ELISA mean; 100 uM H2O2
[22] = molecular target: SOD1 oxidized with H2O2 (Homo sapiens (Human)) (UniProt P00441); experiment: ELISA rep2; 10 mM H2O2
[23] = molecular target: denatured or misfolded SOD1 (SOD1 in denaturation buffer with 6M GdnHCl) (Homo sapiens (Human)) (UniProt P00441); experiment: ELISA, SOD1 minus BSA
[24] = molecular target: natively folded SOD1 (SOD1 in PBS) (Homo sapiens (Human)) (UniProt P00441); experiment: ELISA, SOD1 minus BSA
[25] = molecular target: natively folded SOD1 (SOD1 in PBS) (Homo sapiens (Human)) (UniProt P00441); experiment: ELISA rep2; SOD-PBS
[26] = molecular target: denatured or misfolded SOD1 (SOD1 in denaturation buffer with 6M GdnHCl) (Homo sapiens (Human)) (UniProt P00441); experiment: ELISA rep1
BSA control in PBS [27] = molecular target: BSA control in PBS (UniProt P02769); experiment: ELISA rep1
BSA control in GdnHCl [28] = molecular target: BSA control in GdnHCl (UniProt P02769); experiment: ELISA rep1
[29] = molecular target: natively folded SOD1 (SOD1 in PBS) (Homo sapiens (Human)) (UniProt P00441); experiment: ELISA rep1
[30] = molecular target: SOD1 oxidized with a mixture of ascorbate and copperchloride (Homo sapiens (Human)) (UniProt P00441); experiment: ELISA rep2; 0 hr CuCl
[31] = molecular target: denatured or misfolded SOD1 (SOD1 in denaturation buffer with 6M GdnHCl) (Homo sapiens (Human)) (UniProt P00441); experiment: ELISA mean
BSA control in PBS [32] = molecular target: BSA control in PBS (UniProt P02769); experiment: ELISA mean
BSA control in GdnHCl [33] = molecular target: BSA control in GdnHCl (UniProt P02769); experiment: ELISA mean
[34] = molecular target: natively folded SOD1 (SOD1 in PBS) (Homo sapiens (Human)) (UniProt P00441); experiment: ELISA mean
[35] = molecular target: SOD1 oxidized with a mixture of ascorbate and copperchloride (Homo sapiens (Human)) (UniProt P00441); experiment: ELISA rep1; 1 hr CuCl
[36] = molecular target: SOD1 oxidized with a mixture of ascorbate and copperchloride (Homo sapiens (Human)) (UniProt P00441); experiment: ELISA rep2; 6 hr CuCl
[37] = molecular target: SOD1 oxidized with H2O2 (Homo sapiens (Human)) (UniProt P00441); experiment: ELISA rep1; 100 uM H2O2
[38] = molecular target: SOD1 oxidized with a mixture of ascorbate and copperchloride (Homo sapiens (Human)) (UniProt P00441); experiment: ELISA mean; 1 hr CuCl
[39] = molecular target: SOD1 oxidized with H2O2 (Homo sapiens (Human)) (UniProt P00441); experiment: ELISA rep2; 100 uM H2O2
BSA control in PBS [40] = molecular target: BSA control in PBS (UniProt P02769); experiment: ELISA mean; BSA-PBS
[41] = molecular target: DSE-2-BSA antigen (human); experiment: indirect ELISA Exp #2
[42] = molecular target: SOD1 oxidized with H2O2 (Homo sapiens (Human)) (UniProt P00441); experiment: ELISA rep1; 10 mM H2O2
[43] = molecular target: SOD1 oxidized with a mixture of ascorbate and copperchloride (Homo sapiens (Human)) (UniProt P00441); experiment: ELISA rep1; 0 hr CuCl
BSA control in PBS [44] = molecular target: BSA control in PBS (UniProt P02769); experiment: ELISA rep1; BSA-PBS
[45] = molecular target: denatured or misfolded SOD1 (SOD1 in denaturation buffer with 6M GdnHCl) (Homo sapiens (Human)) (UniProt P00441); experiment: ELISA rep2
BSA control in PBS [46] = molecular target: BSA control in PBS (UniProt P02769); experiment: ELISA rep2
BSA control in GdnHCl [47] = molecular target: BSA control in GdnHCl (UniProt P02769); experiment: ELISA rep2
[48] = molecular target: natively folded SOD1 (SOD1 in PBS) (Homo sapiens (Human)) (UniProt P00441); experiment: ELISA rep2
[49] = molecular target: SOD1 oxidized with H2O2 (Homo sapiens (Human)) (UniProt P00441); experiment: ELISA rep3; 10 mM H2O2
[50] = molecular target: denatured or misfolded SOD1 (SOD1 in denaturation buffer with 6M GdnHCl) (Homo sapiens (Human)) (UniProt P00441); experiment: ELISA rep3; SOD-Gnd
[51] = molecular target: SOD1 oxidized with H2O2 (Homo sapiens (Human)) (UniProt P00441); experiment: ELISA rep3; 1 mM H2O2
BSA control in PBS [52] = molecular target: BSA control in PBS (UniProt P02769); experiment: ELISA rep3; BSA-PBS
[53] = molecular target: SOD1 oxidized with a mixture of ascorbate and copperchloride (Homo sapiens (Human)) (UniProt P00441); experiment: ELISA rep3; 0 hr CuCl
[54] = molecular target: SOD1 oxidized with a mixture of ascorbate and copperchloride (Homo sapiens (Human)) (UniProt P00441); experiment: ELISA rep3; 1 hr CuCl
[55] = molecular target: SOD1 oxidized with a mixture of ascorbate and copperchloride (Homo sapiens (Human)) (UniProt P00441); experiment: ELISA rep3; 3 hr CuCl
[56] = molecular target: natively folded SOD1 (SOD1 in PBS) (Homo sapiens (Human)) (UniProt P00441); experiment: ELISA rep3; SOD-PBS
[57] = molecular target: SOD1 oxidized with H2O2 (Homo sapiens (Human)) (UniProt P00441); experiment: ELISA rep3; 100 uM H2O2
[58] = molecular target: SOD1 oxidized with a mixture of ascorbate and copperchloride (Homo sapiens (Human)) (UniProt P00441); experiment: ELISA rep3; 6 hr CuCl

- OD450 [1]: 1.98 OD450
- absorbance [2]: 0.745
- U/F [3]: 7.93 fold
- OD450 [4]: 0.081 OD450
- absorbance [5]: 0.744
- absorbance [6]: 2.29
- absorbance [7]: 0.34
- absorbance [8]: 1.44
- absorbance [9]: 1.72
- absorbance [10]: 1.67
- absorbance [11]: 0.717
- absorbance [12]: 0.558
- absorbance [13]: 1.62
- absorbance [14]: 2.29
- absorbance [15]: 0.731
- absorbance (BSA control in PBS [16]): 0.076
- absorbance [17]: 0.338
- absorbance [18]: 2.29
- absorbance [19]: 1.43
- absorbance [20]: 1.38
- absorbance [21]: 0.43
- absorbance [22]: 0.726
- S-N (U) [23]: 1.99 OD450
- S-N (F) [24]: 0.251 OD450
- absorbance [25]: 0.335
- OD450 [26]: 2.19 OD450
- OD450 (BSA control in PBS [27]): 0.161 OD450
- OD450 (BSA control in GdnHCl [28]): 0.165 OD450
- OD450 [29]: 0.257 OD450
- absorbance [30]: 0.59
- OD450 [31]: 2.15 OD450
- OD450 (BSA control in PBS [32]): 0.156 OD450
- OD450 (BSA control in GdnHCl [33]): 0.164 OD450
- OD450 [34]: 0.41 OD450
- absorbance [35]: 1.59
- absorbance [36]: 1.49
- absorbance [37]: 0.436
- absorbance [38]: 1.51
- absorbance [39]: 0.425
- absorbance (BSA control in PBS [40]): 0.077
- OD450 [41]: 1.91 OD450
- absorbance [42]: 0.763
- absorbance [43]: 0.527
- absorbance (BSA control in PBS [44]): 0.078
- OD450 [45]: 2.1 OD450
- OD450 (BSA control in PBS [46]): 0.15 OD450
- OD450 (BSA control in GdnHCl [47]): 0.162 OD450
- OD450 [48]: 0.563 OD450
Substance: anti-DSE2 hybridoma clone 3H1 (antibody)

- absorbance [49]: 0.878
- absorbance [2]: 0.851
- absorbance [5]: 0.776
- absorbance [6]: 1.25
- absorbance [7]: 0.357
- absorbance [8]: 1.03
- absorbance [9]: 1.06
- absorbance [10]: 1.07
- absorbance [11]: 0.752
- absorbance [50]: 1.23
- absorbance [51]: 0.781
- absorbance [12]: 0.668
- absorbance [13]: 1.06
- absorbance [14]: 1.24
- absorbance [15]: 0.77
- absorbance (BSA control in PBS [52]): 0.091
- absorbance (BSA control in PBS [16]): 0.098
- absorbance [17]: 0.369
- absorbance [18]: 1.24
- absorbance [53]: 0.664
- absorbance [19]: 1.02
- absorbance [20]: 1.04
- absorbance [21]: 0.473
- absorbance [22]: 0.84
- absorbance [54]: 1.03
- absorbance [25]: 0.362
- absorbance [55]: 1.08
- absorbance [30]: 0.669
- absorbance [35]: 1.02
- absorbance [36]: 0.987
- absorbance [37]: 0.489
- absorbance [38]: 1.03
- absorbance [39]: 0.476
- absorbance [56]: 0.389
- absorbance (BSA control in PBS [40]): 0.103
- absorbance [42]: 0.836
- absorbance [43]: 0.67
- absorbance [57]: 0.453
- absorbance (BSA control in PBS [44]): 0.12
- absorbance [58]: 1.04
Substance: anti-DSE2 IgG mAb clone 10E11C11 (antibody)
